Results: patent publication US20220153851A1 (Five Prime, published 2022)
Changes are numbered by the printed parent chain.

B1: cAb 0302 (antibody, human IgG4 S228P, kappa)
heavy: not shown
light: DVVVTQTPASLAVSLGQRATISCRASESVDNYGLSFMNWFQQKPGQPPKLLIYTASNLESGIPARFSGGGSRTDFTLTIDPVEADDAATYFCQQSKELPWTFGGGTRLEIKRTVAAPSVFIFPPSDEQLKSGTASVVCLLNNFYPREAKVQWKVDNALQSGNSQESVTEQDSKDSTYSLSSTLTLSKADYEKHKVYACEVTHQGLSSPVTKSFNRGEC
B2: h0311-L1H2 (antibody, human IgG4 S228P, kappa, V domains shown)
VH: QVQLVQSGAEVKKPGSSVKVSCKASGYIFTDYNMHWVRQAPGQGLEWMGEINPNNGVVVYNQKFKGTTTLTVDKSTSTAYMELSSLRSEDTAVYYCTRALYHSNFGWYFDSWGQGTLVTVSS
VL: DIVLTQSPATLSLSPGERATLSCKASQSVDYDGDSHMNWYQQKPGQAPRLLIYTASNLESGIPARFSGSGSGADFTLTISSLEPEDFAVYYCQQGNEDPWTFGQGTKVEIKR
notes: also called Ab16; huAb 0311-L1H2
B3: h0302-L1H2 (antibody, human IgG4 S228P, kappa, V domains shown)
VH: QVQLVQSGAEVKKPGSSVKVSCKASGYTFSDFNIHWVRQAPGQGLEWIGYINPYTDVTVYNEKFKGRATLTSDKSTSTAYMELSSLRSEDTAVYYCASYFDGTFDYALDYWGQGTLVTVSS
VL: EIVLTQSPATLSLSPGERATLSCRASESVDNYGLSFMNWYQQKPGQAPRLLIYTASNLESGIPARFSGSGSRTDFTLTISSLEPEDFAVYYCQQSKELPWTFGQGTKVEIKR
notes: also called Ab11; huAb 0302-L1H2
B4: h0302-L2H2 (antibody, human IgG4 S228P, kappa, V domains shown)
VH: B3 VH
VL: B3 VL with L4V, Y40F
notes: also called Ab12; huAb 0302-L2H2
B5: h0301-L0H0 (antibody, human IgG4 S228P, kappa)
heavy: not shown
light: EIVLTQSPATLSLSPGERATLSCKASQSVDYDGDNYMNWYQQKPGQAPRLLIYAASNLESGIPARFSGSGSGTDFTLTISSLEPEDFAVYYCHLSNEDLSTFGGGTKVEIKRTVAAPSVFIFPPSDEQLKSGTASVVCLLNNFYPREAKVQWKVDNALQSGNSQESVTEQDSKDSTYSLSSTLTLSKADYEKHKVYACEVTHQGLSSPVTKSFNRGEC
notes: also called Ab1; huAb 0301-L0H0
B6: h0301-L1H0 (antibody, human IgG4 S228P, kappa)
heavy: not shown
light: B5 light with E1N
notes: also called Ab4; huAb 0301-L1H0
B7: cAb 0311 (antibody, human IgG4 S228P, kappa, V domains shown)
VH: EIQLQQSGPDLMKPGASVKMSCKASGYIFTDYNMHWVKQNQGKSLEWMGEINPNNGVVVYNQKFKGTTTLTVDKSSSTAYMDLHSLTSEDSAVYYCTRALYHSNFGWYFDSWGKGTTLTVSS
VL: DIVLTQSPASLAVSLGQRATISCKASQSVDYDGDSHMNWYQQKPGQPPKLLIYTASNLESGIPARFSGSGSGADFTLTIHPVEEEDAATYYCQQGNEDPWTFGGGTRLEIKR

Key:
cynoCSF1R ECD-Fc [1] = target: T1, cynoCSF1R ECD-Fc (cynomolgus); assay: competition ELISA, blocking of human IL34 binding to cynoCSF1R ECD-Fc
T1 construct: also called cynomolgus CSF1R ECD

[2] = target: T2, human CSF1R on CSF1R (SEQ ID NO: 2)-transfected CHO cells (human, UniProt P07333 20-972); assay: cell-based or functional assay
hCSF1R ECD.506-Fc = target: T3, hCSF1R ECD.506-Fc (human); assay: ELISA, plate coated with human CSF1R ECD-Fc
T3 construct: also called human CSF1R ECD-Fc fusion protein; human CSF1R ECD
Description: (§1) Ninety-six well clear-bottom ELISA plates were coated overnight with 1 μg/ml recombinant hCSF1R ECD.506-Fc (SEQ ID NO: 6; FivePrime Therapeutics) or Human M-CSF R Fc Chimera (R&D Systems) in PBS. The next morning, wells were washed four times with 0.05% Tween20 in PBS (PBST) and blocked with Blocker-Blotto (Pierce). Fifty μl of 0.5× serial dilutions of the humanized antibody or parental chimeric antibody, beginning with 2000 ng/ml, diluted 1:1 in Blocker-Blotto were added to the CSF1R-coated wells. After incubation at room temperature (RT) for 90 min, wells were washed four times with PBST, and a 1:5000 dilution of a peroxidase-conjugated Goat anti-Human kappa Light chain antibody (Sigma) in Blocker-Blotto was added to each well. After incubation at RT for 60 min, wells were washed four times with PBST, and 50 μl o-phenylenediamine dihydrochloride peroxidase substrate (Sigma) was added to each well. After incubation at RT for 30 min, A450 values of each well were read directly on a SpectraMaxPlus spectrophotometer with SoftMaxPro software (Molecular Devices).

mCSF1R ECD-Fc = target: T4, mCSF1R ECD-Fc (mouse); assay: ELISA, plate coated with mCSF1R ECD-Fc, detection anti-human kappa-HRP, A450
T4 construct: also called mouse CSF1R ECD
Description: as §1
(§2) The binding curve for each humanized antibody binding to mouse CSF1R ECD was determined as described above for human CSF1R, except the wells of the clear-bottom ELISA plates were coated overnight with 2 μg/ml recombinant mCSF1R ECD-Fc (FivePrime Therapeutics, SEQ ID NO: 93).

cynoCSF1R ECD-Fc [3] = target: T1, cynoCSF1R ECD-Fc; assay: competition ELISA, blocking of human CSF1 binding to cynoCSF1R ECD-Fc
Description: The humanized antibodies, along with the parental chimeric antibodies (cAbs), were tested for their ability to block human CSF1 binding to human and cynomolgus CSF1R ECD, as follows.
Recombinant Human CSF1 (M-CSF; R&D Systems) was biotinylated using an NH₂-Biotin Labeling Kit (Dojindo Molecular Technologies). One hundred μl of 1 μg/ml biotinylated CSF1 in PBST/0.1% BSA was added to the wells of Reacti-Bind Streptavidin coated plates (Pierce) pre-blocked with SuperBlock blocking buffer (Pierce) according to the manufacturer's instructions. Fifty μl of 0.5× serial dilutions of the humanized antibody or parental chimeric antibody, beginning with 2000 ng/ml, was incubated with 50 ng/ml hCSF1R ECD.506-Fc (SEQ ID NO: 6; FivePrime Therapeutics) or 50 ng/ml cynoCSF1R ECD-Fc (FivePrime Therapeutics, SEQ ID NO: 8, but without the 19 amino acid leader sequence) in 100 μl PBST/0.1% BSA for 90 min at RT, after which the admix was transferred to one or more wells of a ligand-coated plate. After 90 min at RT, wells were washed with PBST, and a 1:5000 dilution of an Fc-fragment-specific peroxidase-conjugated goat anti-human IgG (Jackson Immuno Research) in PBST/0.1% BSA was added to each well. After incubation at RT for 60 min, wells were washed with PBST/0.1% BSA, and o-phenylenediamine dihydrochloride peroxidase substrate (Sigma) was added to each well. After incubation at RT for 30 min, A450 values of each well were read directly on a SpectraMaxPlus spectrophotometer with SoftMaxPro software (Molecular Devices).

cynoCSF1R ECD-Fc [4] = target: T1, cynoCSF1R ECD-Fc; assay: ELISA, plate coated with cynoCSF1R ECD-Fc
Description: as §1
as §2, with “cynomolgus” for “mouse”, “cynoCSF1R” for “mCSF1R”, “8, but without the 19 amino acid leader sequence).” for “93).”

[5] = target: T2, human CSF1R on CSF1R (SEQ ID NO: …); assay: cell-based or functional assay; remark: listed apart in the source
hCSF1R ECD.506 = target: T5, hCSF1R ECD.506 (human, UniProt P07333 20-506); assay: SPR Biacore T100, antibody captured on anti-human IgG, hCSF1R ECD.506 as analyte, 1:1 model
T5 construct: also called human CSF1R ECD
Description: The kₐ, kd, and KD for binding to human CSF1R ECD was determined for each of the humanized antibodies as follows.
Binding kinetics of anti-CSF1R humanized antibodies to CSF1R ECD was determined using Biacore T100 Surface Plasmon Resonance (SPR) (GE Healthcare Life Sciences, Piscataway, N.Y.). Each of the humanized anti-CSF1R antibodies was captured on a CM5 sensor chip immobilized with anti-Human IgG antibody using the Human antibody capture kit (GE Healthcare Life Sciences, Piscataway, N.Y.) at 150 RU so that the Rmax value for hCSF1R ECD.506 (SEQ ID NO: 5) binding was 100 RU. Rmax values of less than 150 RU are recommended for accurately determining kinetic values. […] The association constant, dissociation constant, affinity, and binding capacity of each of the Fabs for human CSF1R ECD was calculated using the Biacore T100 Evaluation software package using the 1:1 binding model.

[6] = target: T2, human CSF1R on CSF1R (SEQ ID NO: …); assay: cell-based or functional assay; remark: listed apart in the source
[7] = target: T2, human CSF1R on CSF1R (SEQ ID NO: …); assay: cell-based or functional assay; remark: listed apart in the source

Binder | IC50 (cynoCSF1R ECD-Fc [1]) [mg/L] | IC50, inhibition of CSF1-induced CSF1R phosphorylation (head prints 'Human CSF1/Human CSF1R ECD IC50') [2] [mg/L] | IC50, inhibition of IL34-induced CSF1R phosphorylation (head prints 'Human IL34/Human CSF1R ECD IC50') [2] [mg/L] | EC50 (hCSF1R ECD.506-Fc) [mg/L] | binding result (mCSF1R ECD-Fc) | IC50 (cynoCSF1R ECD-Fc [3]) [mg/L] | EC50 (cynoCSF1R ECD-Fc [4]) [mg/L] | IC50 (read off the curve), CSF1-induced CSF1R phosphorylation [5] [mg/L] | Kd (hCSF1R ECD.506) [nM] | koff (hCSF1R ECD.506) [s⁻¹] | kon (hCSF1R ECD.506) [M⁻¹ s⁻¹] | IC50 (read off the curve), IL34-induced CSF1R phosphorylation [6] [mg/L] | CSF1 blocking IC50 (ligand-induced CSF1R phosphorylation in CHO cells) [7] [mg/L] | IL34 blocking IC50 (ligand-induced CSF1R phosphorylation in CHO cells) [7] [mg/L]
B1 | 0.0494 | 0.264 | 0.351 | 0.0159 | no binding (tested: 2000 ng/ml) | 0.0331 | 0.0173 | ~0.3 |  |  |  |  |  | 
B2 | 0.0486 | 0.419 | 0.578 | 0.0133 | no binding (tested: 2000 ng/ml) | 0.0308 | 0.0203 |  | 0.4 | 0.000609 | 1.51e+06 | ~0.6 |  | 
B3 | 0.541 | 0.598 | 0.495 | 0.0221 | no binding (tested: 2000 ng/ml) | 1.08 | 0.172 | ~0.6 | 0.56 | 0.00153 | 2.71e+06 |  |  | 
B4 | 0.279 | 0.354 | 0.24 | 0.0101 | no binding (tested: 2000 ng/ml) | 0.838 | 0.018 |  | 0.46 | 0.00084 | 1.84e+06 |  |  | 
B5 | 0.0359 | 1.03 | 0.433 | 0.0134 | no binding (tested: 2000 ng/ml) | 0.0276 | 0.0151 |  | 0.35 | 0.00111 | 3.22e+06 |  | 0.305 | 0.341
B6 | 0.0348 | 6.15 | 0.378 | 0.0134 | no binding (tested: 2000 ng/ml) | 0.0255 | 0.0119 |  | 0.35 | 0.00115 | 3.29e+06 |  | 0.213 | 0.242
B7 | 0.0521 | 0.577 | 0.994 | 0.0176 | no binding (tested: 2000 ng/ml) | 0.0435 | 0.0201 |  |  |  |  | ~1 |  | 
